# Experimental data reported in patent US20190077860A1 (EISAI R AND D MANAGEMENT, published 2019).
# Columns and labels:
# [1] = biological target: T1, mouse EphA4 extracellular region-SEAP-His protein (mouse); test: competition ELISA, competitor biotinylated mouse Ephrin B2-Fc
# Procedure: Antibody A-Fab and antibody A-F(ab′)₂ obtained in Example 5 were evaluated for their inhibitory activity against the binding between EphA4 and its ligand according to the following steps. Each well of a 96-well plate (Nunc) was coated with an anti-alkaline phosphatase antibody (Thermo Fisher Scientific). After incubation overnight at 4° C., each well was blocked with 1% BlockAce (DS Pharma Biomedical) at room temperature for 1 hour. After washing with 0.05% Tween 20/PBS (Thermo Fisher Scientific) three times, the mouse EphA4 extracellular region-SEAP-His protein obtained by the method of Example 1 was added (final concentration: 10 nM) to each well and incubated at room temperature for 1 hour. After washing three times, a ligand and serially diluted antibody A (0, 0.003, 0.01, 0.03, 0.1, 0.3, 1, 3, 10, 30, 100, 300, 1000, and 3000 nM), antibody A-Fab (0, 0.003, 0.01, 0.03, 0.1, 0.3, 1, 3, 10, 30, 100, 300, 1000, and 3000 nM), antibody A-F(ab′)₂ (0, 0.003, 0.01, 0.03, 0.1, 0.3, 1, 3, 10, 30, 100, 300, 1000, and 3000 nM), or the EphA4 inhibitor KYL peptide ([…], 0, 0.0003, 0.001, 0.003, 0.01, 0.03, 0.1, 0.3, 1, 3, 10, 30, 100, 300, 1000, and 3000 μM, its synthesis was outsourced to Toray Research Center) were added to each well. The ligand used was biotinylated mouse Ephrin B2-Fc chimera (R&D Systems, final concentration: 2.5 nM). After incubation at room temperature for 1 hour and subsequent washing three times, horseradish peroxidase-labeled streptavidin (GE Healthcare) was added thereto and incubated at room temperature for 1 hour. After washing three times, a TMBZ (3,3′,5,5′-tetramethylbenzidine, Sigma-Aldrich) solution was added to each well and incubated at room temperature for 2 minutes. An equal amount of a reaction stopping solution (1N H₂SO₄, Wako Pure Chemical Industries) was added to each well. The absorbance at 450 nm was read using a microplate reader (Molecular Devices or PerkinElmer).
# Antibody A and antibody A-F(ab′)₂ had 1000 or more times the activity of the KYL peptide, and antibody A-Fab also had 10 or more times the activity of KYL peptide.
# [2] = biological target: T1, mouse EphA4 extracellular …; test: SPR (Biacore T200), mouse EphA4 extracellular region-SEAP-His captured on an anti-His antibody CM5 chip, Fab as analyte at 6.2-500 nM, 1:1 fit
# Procedure: (§1) Next, the binding affinity of antibody A-Fab and antibody A-F(ab′)₂ for mouse and human EphA4 was determined by surface plasmon resonance (SPR) using Biacore T200 (GE Healthcare). Antibody A obtained in Example 1 was used as a control for the comparison of each fragment. First, an anti-His tag antibody was immobilized on sensor chip CM5. The immobilization of the anti-His tag antibody on sensor chip CM5 was performed by the amine coupling method using N-hydroxysuccinimide (NHS) and N-ethyl-N′-(3-dimethylaminopropyl)carbodiimide hydrochloride (EDC). Ethanolamine was used in blocking (the sensor chip and the reagents for immobilization were all manufactured by GE Healthcare). The antibody was diluted with a buffer solution for immobilization (10 mM sodium acetate, pH 4.5) into 3 μg/mL and immobilized on the sensor chip according to the protocol attached to Biacore T200.
# (§2) Mouse or human EphA4 extracellular region-SEAP-His protein was diluted with a running buffer solution HBS-EP (GE Healthcare, BR-1001-88), injected onto a flow cell for 120 seconds, and captured (amount of the protein captured: approximately 10 to 20 RU). Subsequently, antibody A (50, 16.7, 5.6, 1.9, 0.6, and 0 nM), antibody A-Fab (500, 166.7, 55.6, 18.5, 6.2, and 0 nM), or antibody A-F(ab′)₂ (50, 16.7, 5.6, 1.9, 0.6, and 0 nM) serially diluted using HBS-EP was added to the sensor chip for 120 seconds. […]
# [3] = biological target: T2, human EphA4 extracellular region-SEAP-His protein (human, UniProt P54764 20-547); test: SPR (Biacore T200), human EphA4 extracellular region-SEAP-His captured on an anti-His antibody CM5 chip, Fab as analyte at 6.2-500 nM, 1:1 fit
# T2 construct: also called hEphA4-SEAP-His
# Procedure: as §1, §2
# [4] = biological target: T1, mouse EphA4 extracellular …; test: SPR (Biacore T200), EphA4-SEAP-His captured by anti-His antibody; Fab (monovalent), not F(ab')2
# Procedure: as §1, §2
# [5] = biological target: T2, human EphA4 extracellular …; test: as above
# Procedure: as §1, §2
# [6] = biological target: T2, human EphA4 extracellular …; test: competition ELISA, competitor human Ephrin B3-Fc
# Procedure: (§3) Antibody A obtained in Example 1 was evaluated for its inhibitory activity against the binding between human EphA4 and its human ligand according to the following steps. Each well of a 96-well plate (Nunc) was coated with an anti-alkaline phosphatase antibody (Thermo Fisher Scientific). After incubation overnight at 4° C., each well was blocked with 1% BlockAce (DS Pharma Biomedical) at room temperature for 1 hour. After washing with 0.05% Tween 20/PBS (Thermo Fisher Scientific) three times, the human EphA4 extracellular region-SEAP-His protein obtained by the method of Example 1 was added (final concentration: 10 nM) to each well and incubated at room temperature for 1 hour. After washing three times, ligands and serially diluted antibody A (0, 0.003, 0.01, 0.03, 0.1, 0.3, 1, 3, 10, 30, 100, 300, 1000, and 3000 nM) or an EphA4 inhibitor KYL peptide ([…], 0, 0.003, 0.01, 0.03, 0.1, 0.3, 1, 3, 10, 30, 100, 300, 1000, and 3000 μM, its synthesis was outsourced to Toray Research Center) were added to each well. The ligands used were biotinylated human Ephrin A5-Fc chimera (R&D Systems, final concentration: 0.7 nM) and biotinylated human Ephrin B3-Fc chimera (R&D Systems, final concentration: 2.3 nM). […] The absorbance at 450 nm was read using a microplate reader (Molecular Devices or PerkinElmer). […]
# [7] = biological target: T2, human EphA4 extracellular …; test: competition ELISA, competitor human Ephrin A5-Fc
# Procedure: as §3
# [8] = biological target: rat EphA4 in rat hippocampal neurons (rat, UniProt D3ZZK3 20-986); test: cell-based or functional assay
# [9] = biological target: T2, human EphA4 extracellular …; test: competition ELISA: human EphA4 extracellular region-SEAP-His captured on the plate, blocked ligand biotinylated human Ephrin A5-Fc chimera (0.7 nM)
# Procedure: as §3
# [10] = biological target: T2, human EphA4 extracellular …; test: competition ELISA: human EphA4 extracellular region-SEAP-His captured on the plate, blocked ligand biotinylated human Ephrin B3-Fc chimera (2.3 nM)
# Procedure: as §3
# [11] = biological target: T1, mouse EphA4 extracellular …; test: competition ELISA: mouse EphA4 extracellular region-SEAP-His captured on the plate, blocked ligand mouse Ephrin A1-Fc chimera (20 nM)
# Procedure: (§4) Antibody A obtained in Example 1 was evaluated for its inhibitory activity against the binding between mouse EphA4 and its mouse ligand according to the following steps. Each well of a 96-well plate (Nunc) was coated with an anti-alkaline phosphatase antibody (Thermo Fisher Scientific). After incubation overnight at 4° C., each well was blocked with 1% BlockAce (DS Pharma Biomedical) at room temperature for 1 hour. After washing with 0.05% Tween 20/PBS (Thermo Fisher Scientific) three times, the mouse EphA4 extracellular region-SEAP-His protein obtained by the method of Example 1 was added (final concentration: 10 nM) to each well and incubated at room temperature for 1 hour. After washing three times, ligands and serially diluted antibody A (0, 0.001, 0.003, 0.01, 0.03, 0.1, 0.3, 1,3, 10, 30, 100, 300, and 1000 nM) or a known EphA4 inhibitor KYL peptide ([…], 0, 0.003, 0.01, 0.03, 0.1, 0.3, 1, 3, 10, 30, and 100 μM, its synthesis was outsourced to Hokkaido System Science) or compound 1 (0, 0.03, 0.1, 0.3, 1,3, 10, 30, 100, 300, and 1000 μM, Formula 1, Matrix Scientific) were added to each well. The ligands used were mouse Ephrin A1-Fc chimera (R&D Systems, final concentration: 20 nM) and mouse Ephrin B2-Fc chimera (R&D Systems, final concentration: 0.6 nM). […] The absorbance at 450 nm was read using a microplate reader (Molecular Devices).
# [12] = biological target: T1, mouse EphA4 extracellular …; test: competition ELISA: mouse EphA4 extracellular region-SEAP-His captured on the plate, blocked ligand mouse Ephrin B2-Fc chimera (0.6 nM)
# Procedure: as §4
# [13] = biological target: T1, mouse EphA4 extracellular …; test: competition ELISA, competitor mouse Ephrin B2-Fc
# Procedure: as §4
# T2 sequence (P54764 20-547): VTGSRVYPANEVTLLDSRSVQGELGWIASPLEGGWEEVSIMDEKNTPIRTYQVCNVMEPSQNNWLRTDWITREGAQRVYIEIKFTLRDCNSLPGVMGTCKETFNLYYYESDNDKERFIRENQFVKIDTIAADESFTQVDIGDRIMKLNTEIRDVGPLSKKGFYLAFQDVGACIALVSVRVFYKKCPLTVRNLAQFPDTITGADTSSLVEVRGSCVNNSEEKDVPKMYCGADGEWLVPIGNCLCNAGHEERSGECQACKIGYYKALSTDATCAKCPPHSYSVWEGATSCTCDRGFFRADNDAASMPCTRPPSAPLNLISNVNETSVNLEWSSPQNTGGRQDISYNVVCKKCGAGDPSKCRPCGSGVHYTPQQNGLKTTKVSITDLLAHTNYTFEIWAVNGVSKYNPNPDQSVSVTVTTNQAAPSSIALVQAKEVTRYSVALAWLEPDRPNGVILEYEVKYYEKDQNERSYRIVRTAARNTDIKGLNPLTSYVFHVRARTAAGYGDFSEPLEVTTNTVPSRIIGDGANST
# T1 sequence (chain, as listed by the source limits assumed): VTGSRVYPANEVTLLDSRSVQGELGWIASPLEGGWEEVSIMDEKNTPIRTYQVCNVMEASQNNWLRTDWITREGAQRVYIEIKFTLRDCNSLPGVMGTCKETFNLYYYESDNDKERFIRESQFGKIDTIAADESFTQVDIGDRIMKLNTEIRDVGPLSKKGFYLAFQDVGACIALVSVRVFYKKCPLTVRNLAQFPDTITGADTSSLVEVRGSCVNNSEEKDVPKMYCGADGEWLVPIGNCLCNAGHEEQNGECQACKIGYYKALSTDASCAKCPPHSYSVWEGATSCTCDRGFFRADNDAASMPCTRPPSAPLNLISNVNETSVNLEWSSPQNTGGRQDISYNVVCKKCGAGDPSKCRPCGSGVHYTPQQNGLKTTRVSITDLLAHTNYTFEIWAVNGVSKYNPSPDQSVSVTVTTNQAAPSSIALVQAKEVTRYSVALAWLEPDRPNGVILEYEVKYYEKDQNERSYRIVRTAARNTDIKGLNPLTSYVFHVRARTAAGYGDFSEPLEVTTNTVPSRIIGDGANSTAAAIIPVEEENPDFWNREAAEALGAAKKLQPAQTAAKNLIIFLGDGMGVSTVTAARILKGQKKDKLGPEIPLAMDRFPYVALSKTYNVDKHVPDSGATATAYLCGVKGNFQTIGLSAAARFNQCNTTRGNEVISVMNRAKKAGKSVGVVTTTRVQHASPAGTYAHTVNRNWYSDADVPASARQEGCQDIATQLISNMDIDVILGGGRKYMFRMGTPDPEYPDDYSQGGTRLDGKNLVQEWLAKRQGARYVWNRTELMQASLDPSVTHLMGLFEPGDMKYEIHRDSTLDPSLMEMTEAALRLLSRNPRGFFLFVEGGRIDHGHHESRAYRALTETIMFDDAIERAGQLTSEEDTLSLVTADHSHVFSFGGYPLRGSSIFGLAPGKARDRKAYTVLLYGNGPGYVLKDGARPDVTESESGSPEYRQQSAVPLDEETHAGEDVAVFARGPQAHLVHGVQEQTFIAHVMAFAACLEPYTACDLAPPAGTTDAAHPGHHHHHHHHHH
IC50 [1],fold activity against KYL peptide [1],koff [2],kon [2],koff [3],kon [3],Kd [4],Kd [5],IC50 [6],IC50 [7],IC50 of suppression of EphA4 autophosphorylation induced by mouse EphrinA1 in the hippocampal neurons [8],IC50 [9],IC50 [10],IC50 [11],IC50 [12],IC50 [13],Binder
0.439 µM,≥ 10 fold,0.042 s⁻¹,931000 M⁻¹ s⁻¹,0.0373 s⁻¹,921000 M⁻¹ s⁻¹,0.0451 µM,0.0404 µM,–,–,–,–,–,–,–,–,"antibody A-Fab (Fab, V domains shown, not shown: a dimerising Fc or GST, made by papain digestion of antibody A; also called Fab fragment of antibody A) VH: QIQLVQSGPELKKPGETVKISCKASGYTFTDYSMHWVKQAPGKGLKWMGWINTETGEPTYADDFKGRFAFSLETSASTAYLQINNLKNEDTATYFCARIPLYYYGSRYWYFDVWGAGTTVTVSS VL: DIQMTQSPASLSVSVGETVTITCRASENIYRNLAWYQQKQGKSPQLLVYAATNLADGVPSRFSGSGSGTQYSLKINSLQSEDFGSYYCQHFWGTPWTFGGGTKLEIKR"
5.29 µM,–,–,–,–,–,–,–,~1.6 µM,~6.1 µM,9.91 µM,6.12 µM,1.57 µM,1.29 µM,1.31 µM,~1.3 µM,KYLPYWPVLSSL (synthetic peptide) [KYL peptide]
